Reference: patent US20230407373A1 (priority 2020, published 2023)
Read-outs that look alike come from different tables or passages of the source.

Key:
[1] = system: gRNA of HCoV-OC43; assay type: binding; conditions: for target (spectral count, OC43 Probe I RNP capture) / background (spectral count, no-probe control): type n_48_v: 48 hours post-infection; for target (spectral count, OC43 Probe I RNP capture): infected cells, unweighted spectral count; for background (spectral count, no-probe control): no-probe control on infected cells
[2] = system: HCoV-OC43 gRNA and sgRNA; assay type: binding; conditions: for target (unweighted spectral count, OC43 Probe II capture): tested against no-probe control, FDR<10%; for target (unweighted spectral count, OC43 Probe II) / background (unweighted spectral count, no-probe control): type n_48_v, 48 hpi; for target (unweighted spectral count, OC43 Probe II): OC43 Probe II capture on infected cells; for background (unweighted spectral count, no-probe control): no-probe control on infected cells; for target (spectral count) / background (spectral count): type s_36_m, Probe II; for target (spectral count): HCoV-OC43-infected HCT-8 cells; for background (spectral count): uninfected-probe control

Molecule | target (spectral count) ([1]; type g_36_m, HCoV-OC43-infected HCT-8 cells, 36 hpi, Probe I) | background (spectral count) ([1]; type g_36_m, uninfected-probe control, 36 hpi, Probe I) | target (spectral count, OC43 Probe I RNP capture) [1] | background (spectral count, no-probe control) [1] | target (unweighted spectral count, OC43 Probe II capture) ([2]; 24 hpi, type n_24_v) | target (unweighted spectral count, OC43 Probe II capture) ([2]; 36 hpi, type n_36_v) | target (unweighted spectral count, OC43 Probe II) [2] | background (unweighted spectral count, no-probe control) [2] | target (spectral count) ([2]; 36 hpi) | background (spectral count) ([2]; 36 hpi)
RRBP1: host protein, UniProt Q9P2E9 (protein, UniProt Q9P2E9 1-1410, looked up) Ribosome-binding protein 1: MDIYDTQTLGVVVFGGFMVVSAIGIFLVSTFSMKETSYEEALANQRKEMAKTHHQKVEKKKKEKTVEKKGKTKKKEEKPNGKIPDHDPAPNVTVLLREPVRAPAVAVAPTPVQPPIIVAPVATVPAMPQEKLASSPKDKKKKEKKVAKVEPAVSSVVNSIQVLTSKAAILETAPKEVPMVVVPPVGAKGNTPATGTTQGKKAEGTQNQSKKAEGAPNQGRKAEGTPNQGKKTEGTPNQGKKAEGTPNQGKKAEGTPNQGKKAEGAQNQGKKVDTTPNQGKKVEGAPTQGRKAEGAQNQAKKVEGAQNQGKKAEGAQNQGKKGEGAQNQGKKAEGAQNQGKKAEGAQNQGKKAEGAQNQGKKAEGAQNQGKKAEGAQNQGKKAEGAQNQGKKVEGAQNQGKKAEGAQNQGKKAEGAQNQGKKAEGAQNQGKKAEGAQNQGKKAEGAQNQGKKAEGAQNQGKKAEGAQNQGKKVEGAQNQGKKAEGAQNQGKKAEGAQNQGKKAEGAQNQGQKGEGAQNQGKKTEGAQGKKAERSPNQGKKGEGAPIQGKKADSVANQGTKVEGITNQGKKAEGSPSEGKKAEGSPNQGKKADAAANQGKKTESASVQGRNTDVAQSPEAPKQEAPAKKKSGSKKKGEPGPPDADGPLYLPYKTLVSTVGSMVFNEGEAQRLIEILSEKAGIIQDTWHKATQKGDPVAILKRQLEEKEKLLATEQEDAAVAKSKLRELNKEMAAEKAKAAAGEAKVKKQLVAREQEITAVQARMQASYREHVKEVQQLQGKIRTLQEQLENGPNTQLARLQQENSILRDALNQATSQVESKQNAELAKLRQELSKVSKELVEKSEAVRQDEQQRKALEAKAAAFEKQVLQLQASHRESEEALQKRLDEVSRELCHTQSSHASLRADAEKAQEQQQQMAELHSKLQSSEAEVRSKCEELSGLHGQLQEARAENSQLTERIRSIEALLEAGQARDAQDVQASQAEADQQQTRLKELESQVSGLEKEAIELREAVEQQKVKNNDLREKNWKAMEALATAEQACKEKLLSLTQAKEESEKQLCLIEAQTMEALLALLPELSVLAQQNYTEWLQDLKEKGPTLLKHPPAPAEPSSDLASKLREAEETQSTLQAECDQYRSILAETEGMLRDLQKSVEEEEQVWRAKVGAAEEELQKSRVTVKHLEEIVEKLKGELESSDQVREHTSHLEAELEKHMAAASAECQNYAKEVAGLRQLLLESQSQLDAAKSEAQKQSDELALVRQQLSEMKSHVEDGDIAGAPASSPEAPPAEQDPVQLKTQLEWTEAILEDEQTQRQKLTAEFEEAQTSACRLQEELEKLRTAGPLESSETEEASQLKERLEKEKKLTSDLGRAATRLQELLKTTQEQLAREKDTVKKLQEQLEKAEDGSSSKEGTSV | 22 | 1 | 17 | 5 | 10 | 16 | 32 | 5 | 16 | 1
ESRP2 (protein, UniProt Q9H6T0 1-727, looked up) Epithelial splicing …: MTPPPPPPPPPGPDPAADPAADPCPWPGSLVVLFGATAGALGRDLGSDETDLILLVWQVVEPRSRQVGTLHKSLVRAEAAALSTQCREASGLSADSLARAEPLDKVLQQFSQLVNGDVALLGGGPYMLCTDGQQLLRQVLHPEASRKNLVLPDMFFSFYDLRREFHMQHPSTCPARDLTVATMAQGLGLETDATEDDFGVWEVKTMVAVILHLLKEPSSQLFSKPEVIKQKYETGPCSDSTVPCPYSSKADVVDSETVVRARGLPWQSSDQDVARFFKGLNVARGGVALCLNAQGRRNGEALIRFVDSEQRDLALQRHKHHMGVRYIEVYKATGEEFVKIAGGTSLEVARFLSREDQVILRLRGLPFSAGPTDVLGFLGPECPVTGGTEGLLFVRHPDGRPTGDAFALFACEELAQAALRRHKGMLGKRYIELFRSTAAEVQQVLNRYASGPLLPTLTAPLLPIPFPLAPGTGRDCVRLRGLPYTATIEDILSFLGEAAADIRPHGVHMVLNQQGRPSGDAFIQMTSAERALAAAQRCHKKVMKERYVEVVPCSTEEMSRVLMGGTLGRSGMSPPPCKLPCLSPPTYTTFQATPTLIPTETAALYPSSALLPAARVPAAPTPVAYYPGPATQLYLNYTAYYPSPPVSPTTVGYLTTPTAALASAPTSVLSQSGALVRMQGVPYTAGMKDLLSVFQAYQLPADDYTSLMPVGDPPRTVLQAPKEWVCL |  |  | 6 | 1 | 5 | 6 | 8 | 1 |  | 
RBM4 (protein, UniProt Q9BWF3 1-364, looked up) RNA-binding protein 4: MVKLFIGNLPREATEQEIRSLFEQYGKVLECDIIKNYGFVHIEDKTAAEDAIRNLHHYKLHGVNINVEASKNKSKTSTKLHVGNISPTCTNKELRAKFEEYGPVIECDIVKDYAFVHMERAEDAVEAIRGLDNTEFQGKRMHVQLSTSRLRTAPGMGDQSGCYRCGKEGHWSKECPIDRSGRVADLTEQYNEQYGAVRTPYTMSYGDSLYYNNAYGALDAYYKRCRAARSYEAVAAAAASVYNYAEQTLSQLPQVQNTAMASHLTSTSLDPYDRHLLPTSGAAATAAAAAAAAAAVTAASTSYYGRDRSPLRRATAPVPTVGEGYGYGHESELSQASAAARNSLYDMARYEREQYADRARYSAF |  |  | 6 | 1 | 4 | 4 |  |  |  | 
POP1: host protein, UniProt Q99575 (protein, UniProt Q99575 1-1024, looked up) Ribonucleases P/MRP protein …: MSNAKERKHAKKMRNQPTNVTLSSGFVADRGVKHHSGGEKPFQAQKQEPHPGTSRQRQTRVNPHSLPDPEVNEQSSSKGMFRKKGGWKAGPEGTSQEIPKYITASTFAQARAAEISAMLKAVTQKSSNSLVFQTLPRHMRRRAMSHNVKRLPRRLQEIAQKEAEKAVHQKKEHSKNKCHKARRCHMNRTLEFNRRQKKNIWLETHIWHAKRFHMVKKWGYCLGERPTVKSHRACYRAMTNRCLLQDLSYYCCLELKGKEEEILKALSGMCNIDTGLTFAAVHCLSGKRQGSLVLYRVNKYPREMLGPVTFIWKSQRTPGDPSESRQLWIWLHPTLKQDILEEIKAACQCVEPIKSAVCIADPLPTPSQEKSQTELPDEKIGKKRKRKDDGENAKPIKKIIGDGTRDPCLPYSWISPTTGIIISDLTMEMNRFRLIGPLSHSILTEAIKAASVHTVGEDTEETPHRWWIETCKKPDSVSLHCRQEAIFELLGGITSPAEIPAGTILGLTVGDPRINLPQKKSKALPNPEKCQDNEKVRQLLLEGVPVECTHSFIWNQDICKSVTENKISDQDLNRMRSELLVPGSQLILGPHESKIPILLIQQPGKVTGEDRLGWGSGWDVLLPKGWGMAFWIPFIYRGVRVGGLKESAVHSQYKRSPNVPGDFPDCPAGMLFAEEQAKNLLEKYKRRPPAKRPNYVKLGTLAPFCCPWEQLTQDWESRVQAYEEPSVASSPNGKESDLRRSEVPCAPMPKKTHQPSDEVGTSIEHPREAEEVMDAGCQESAGPERITDQEASENHVAATGSHLCVLRSRKLLKQLSAWCGPSSEDSRGGRRAPGRGQQGLTREACLSILGHFPRALVWVSLSLLSKGSPEPHTMICVPAKEDFLQLHEDWHYCGPQESKHSDPFRSKILKQKEKKKREKRQKPGRASSDGPAGEEPVAGQEALTLGLWSGPLPRVTLHCSRTLLGFVTQGDFSMAVGCGEALGFVSLTGLLDMLSSQPAAQRGLVLLRPPASLQYRFARIAIEV |  |  | 6 | 1 |  | 8 | 7 | 1 | 8 | 1
SF3B2 (protein, UniProt Q13435 1-895, looked up) Splicing factor 3B subunit 2: MATEHPEPPKAELQLPPPPPPGHYGAWAAQELQAKLAEIGAPIQGNREELVERLQSYTRQTGIVLNRPVLRGEDGDKAAPPPMSAQLPGIPMPPPPLGLPPLQPPPPPPPPPPGLGLGFPMAHPPNLGPPPPLRVGEPVALSEEERLKLAQQQAALLMQQEERAKQQGDHSLKEHELLEQQKRAAVLLEQERQQEIAKMGTPVPRPPQDMGQIGVRTPLGPRVAAPVGPVGPTPTVLPMGAPVPRPRGPPPPPGDENREMDDPSVGPKIPQALEKILQLKESRQEEMNSQQEEEEMETDARSSLGQSASETEEDTVSVSKKEKNRKRRNRKKKKKPQRVRGVSSESSGDREKDSTRSRGSDSPAADVEIEYVTEEPEIYEPNFIFFKRIFEAFKLTDDVKKEKEKEPEKLDKLENSAAPKKKGFEEEHKDSDDDSSDDEQEKKPEAPKLSKKKLRRMNRFTVAELKQLVARPDVVEMHDVTAQDPKLLVHLKATRNSVPVPRHWCFKRKYLQGKRGIEKPPFELPDFIKRTGIQEMREALQEKEEQKTMKSKMREKVRPKMGKIDIDYQKLHDAFFKWQTKPKLTIHGDLYYEGKEFETRLKEKKPGDLSDELRISLGMPVGPNAHKVPPPWLIAMQRYGPPPSYPNLKIPGLNSPIPESCSFGYHAGGWGKPPVDETGKPLYGDVFGTNAAEFQTKTEEEEIDRTPWGELEPSDEESSEEEEEEESDEDKPDETGFITPADSGLITPGGFSSVPAGMETPELIELRKKKIEEAMDGSETPQLFTVLPEKRTATVGGAMMGSTHIYDMSTVMSRKGPAPELQGVEVALAPEELELDPMAMTQKYEEHVREQQAQVEKEDFSDMVAEHAAKQKQKKRKAQPQDSRGGSKKYKEFKF |  |  | 5 | 1 |  |  | 5 | 1 |  | 
